Measured values as given in patent US6022955A, “Fatty acid -- pulmonary surfactant conjugates” (Abbott Laboratories, priority 1991, dated 2000).
Ends that are not written are not given here.

B1: SPB (1-78): synthetic full length SP-B peptide, sequence based on natural SP-B (peptide, UniProt P07988 201-279, looked up)
Pulmonary …: FPIPLPYCWLCRALIKRIQAMIPKGALAVAVAQVCRVVPLVAGGICQCLAERYSVILLDTLLGRMLPQLVCRLVLRCSM
modifications: Pulmonary surfactant-associated protein B

Assays:
Type in all cases: physicochemical
[1] = Modified Wilhelmy surface balance (Langmuir trough): dynamic surface tension vs compressed surface area; settings: 37° C.; for Equilibrum (equilibrium adsorption value): after a three (3) minute spreading time, total peptide 0.5 mg/ml; for Wilhelmy-Langmuir Trough Max (maximum dynamic surface tension) / Wilhelmy-Langmuir Trough Min (minimum dynamic surface tension): peptide/lipid admixture, total peptide 0.5 mg/ml (2%; two peptides 0.25 mg/ml each), 675 μg phospholipid, seven compression-expansion cycles, average of 3 runs
Description: The dynamic surface tension lowering properties of the peptide/lipid admixtures were studied using a modified Wilhelmy Surface Balance (Langmuir Trough). The instrument consists of an all Teflon trough and movable Teflon ribbon (dam) barrier system which completely contains and defines a variable surface area. Surface area was varied through the use of a constant rate reversible 3-phase motor to drive the Teflon barrier. A Cahn 2000 electrobalance (Cahn Instruments, Cerittos, Calif.) with a sandblasted 1 cm platinum plate and stainless steel hangdown wire was employed to determine the surface tension at the liquid-air interface. The entire apparatus was situated in a thermostated incubator set at 45° C. Surface area-surface tension measurements were made by adding 950 ml of 0.15 M NaCl to the trough. Subphase temperature was controlled during the measurements at 36-38° C.
For each experiment 27 ul of peptide/lipid admixture was applied in a random array of 13 (.congruent.2 ul) droplets to the surface of the temperature controlled subphase and allowed to spread spontaneously for 3 minutes. (The 27 ul application corresponds to 675 ug of phospholipid). The trough surface area was then cycled from a maximum (445 sq. cm) to a minimum (178 sq. cm) surface area and back to maximum at a cycling rate of 3 cycles/min (compression ratio 2.5:1). The dynamic surface tension vs surface area was recorded for 7 complete compression-expansion cycles for each application.

[2] = Adsorption rate, King-Clements system (Wilhelmy balance, stirred Teflon dish); settings: 10 ml of diluted sample (1:50) added under constant agitation to 70 ml saline subphase; 37° C.; total peptide 0.5 mg/ml
Method: A procedure similar to that described by Notter, et al., Pediatric Res. 16, 515-519, (1982) was employed to determine the absorption rate in the absence of diffusion resistance. The modified Wilhelmy surface balance as described above was used. However, instead of using a Langmuir trough a round Teflon dish (5.1 cm diameter) was employed. The subphase, 70 ml of 0.15 M NaCl, was allowed to equilibrate to 37° C. in the incubator and was continuously stirred with a Teflon coated magnetic stirer. An aliquot of the peptide/lipid admixture containing 5 mg of total phospholipid was dispersed in 10 ml of 0.15 M NaCl by vortexing for 10 seconds. This dispersion was then added to the saline subphase. Surface tension lowering was monitored using a strip chart recorder connected to the electrobalance output and data collected for 20 minutes.

[3] = Pulsating bubble surfactometer (PBS); settings: after 100 cycles (5 minutes, 20 cycles/minute); phospholipid 1 mg/ml; 37° C.; […] NaCl; mean of triplicate
Method: The PBS equipment (Electronetics, Buffalo, N.Y.) used was essentially equivalent to that described in detail by G. Enhorning, J. Appid. Physiol. 43, 198-203, (1977). Recordings were made of the pressure gradient across the wall of a small air bubble, communicating with ambient air by means of a narrow chimney stack, but otherwise entirely surrounded by a 40 ul volume of the peptide/lipid admixture. The admixture concentration employed for these studies was 1 mg/ml total phospholipid (0.02 mg/ml total peptide) and the diluent was 0.15 M NaCl. Immediately prior to loading the sample chamber, the diluted samples were sonicated for 15 seconds to remove any gas nuclei.
The pressure drop across the air-water interface was measured during pulsation by a pressure transducer, and the corresponding surface tension determined through the application of Young's law and the Laplace equation. Measurements were all made at 37° C. and the bubble pulsed at 20 cycles/minute to render respectively a maximum (1.1. mm) and a minimum (0.8 mm) bubble diameter. (This compression/expansion corresponds to a 50% change in the surface area of the air-water interface).

| Molecule | Equilibrum (equilibrium adsorption value) [1] [dynes/cm] | Wilhelmy-Langmuir Trough Max (maximum dynamic surface tension) [1] [dynes/cm] | Wilhelmy-Langmuir Trough Min (minimum dynamic surface tension) [1] [dynes/cm] | King-Clements Adsorption (surface tension) [2] [dynes/cm] | Surface Tension Values Maximum (pulsating bubble apparatus) [3] [dynes/cm] | Surface Tension Values Minimum (pulsating bubble apparatus) [3] [dynes/cm] |
| --- | --- | --- | --- | --- | --- | --- |
| SPB (53-78): synthetic C-terminal SP-B fragment (YSVILLDTLLGRMLPQLVCRLVLRCS; ends and bridges not checked; cysteine pairing not given here; UniProt P07988 253-278, looked up, fragment) | 40.0 | 49.3 | 0.1 | 45.0 | 55.5 | 4.9 |
| B1 | 38.0 | 45.0 | 0.0 | 30.0 | 49.0 | 4.2 |
